Assays:
[1] = biological target: EEEV virus-like particles (VLPs), strain PE-6 (Eastern equine encephalitis virus, strain PE-6)
[2] = biological target: EEEV virus-like particles (VLPs), strain FL93-939, wild type (Eastern equine encephalitis virus, strain FL93-939)

Substance	Kd [1] [µM]	fold higher affinity than LA(2-3) [1] [fold]	Kd [2] [µM]
monovalent VLDLR LA(1-2) (from UniProt P98155 31-110) (receptor)	1	10	
monovalent VLDLR LA(1-3) (from UniProt P98155 31-151) (receptor)	0.0338		
monovalent VLDLR LA(1-4) (from UniProt P98155 28-190) (receptor)	0.037		
monovalent VLDLR LA(1-5) (from UniProt P98155 28-231) (receptor)	0.0145		
monovalent VLDLR LA(1-6) (from UniProt P98155 28-275) (receptor)	0.015		0.05
monovalent VLDLR LA(2-3) (from UniProt P98155 70-151) (receptor)	14		
